Numbering of substitutions follows the chain as printed.

Our source for the Fold diff values is patent publication US20220332804A1 (CSL INNOVATION, published 2022).

What all share (assay): SPR; KD relative to WT C2;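 note: biacore SPR at 37 °C, anti-C2 mAbs captured on an anti-human IgG chip, alanine or serine C2 surface mutants tested, KD from 1:1 fit compared with wild-type C2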
In one assay the target is T1, human C2 A326S (human, UniProt P06681 21-752).
T1 sequence: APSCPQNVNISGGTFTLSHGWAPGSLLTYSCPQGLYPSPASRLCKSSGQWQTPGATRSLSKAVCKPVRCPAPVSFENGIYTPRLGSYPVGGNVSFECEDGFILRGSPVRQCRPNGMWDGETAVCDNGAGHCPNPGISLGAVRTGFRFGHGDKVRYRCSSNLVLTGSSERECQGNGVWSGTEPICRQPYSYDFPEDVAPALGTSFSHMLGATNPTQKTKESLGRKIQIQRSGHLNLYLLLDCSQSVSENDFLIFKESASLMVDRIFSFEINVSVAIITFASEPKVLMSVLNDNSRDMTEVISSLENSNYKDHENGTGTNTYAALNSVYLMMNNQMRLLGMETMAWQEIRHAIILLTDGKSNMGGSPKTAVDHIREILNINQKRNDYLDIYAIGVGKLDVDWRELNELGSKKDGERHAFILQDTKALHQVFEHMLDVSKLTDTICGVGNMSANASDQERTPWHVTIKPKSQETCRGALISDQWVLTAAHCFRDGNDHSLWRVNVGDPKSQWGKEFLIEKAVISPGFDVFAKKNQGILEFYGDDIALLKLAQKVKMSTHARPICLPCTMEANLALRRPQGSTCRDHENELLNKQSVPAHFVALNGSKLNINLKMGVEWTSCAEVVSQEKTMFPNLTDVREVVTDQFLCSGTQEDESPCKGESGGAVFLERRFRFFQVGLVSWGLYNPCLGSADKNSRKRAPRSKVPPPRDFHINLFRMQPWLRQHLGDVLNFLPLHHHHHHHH

Another assay deals with T2, human C2 W420A (human, UniProt P06681 21-752).
T2 sequence: T1 sequence with S306A, W400A

Another assay addresses T3, human C2 Y328A (human, UniProt P06681 21-752).
T3 sequence: T1 sequence with S306A, Y308A

The target in another assay is T4, human C2 S473A (human, UniProt P06681 21-752).
T4 sequence: T1 sequence with S306A, S453A

B1: RF16-214 (antibody, V domains shown)
VH: EVQLLESGGGLVQPGGSLRLSCAASGFTFSWYQMMWVRQAPGKGLEWVSRIYPSGGGTAYADSVKGRFTISRDNSKNTLYLQMNSLRAEDTAVYYCARDAGYGDNWGQGTLVTVSS
VL: QSALTQPPSVSVSPGQTASITCSGDKLGEKYASWYQQKAGQSPVMVIYQDRKRPSGIPERFSGSNSGNTATLTISGTQAMDEADYYCQAWDTRAVVFGGGTKLTVLG
For B1, the Fold diff with human C2 A326S worked out at 1 fold; in the assay with human C2 W420A, 1 fold; in the assay with human C2 Y328A, 6 fold; in the assay with human C2 S473A it was 2 fold.
